From publication PMC11139864

How the values were obtained:
[1] = target: Thogoto virus (THOV) polymerase, full-length heterotrimer of PB2, PB1 and PA (Thogoto virus (isolate SiAr 126)) (UniProt Q9YNA4)
[2] = target: Thogoto virus (THOV) polymerase, full-length heterotrimer of PB2, PB1 and PA (Thogoto virus (isolate SiAr 126)) (UniProt Q9YNA4); assay: cryo-EM structure; replicative elongation sample: 3.2 uM THOVPol, 30 °C for 6 h with 1.6 uM 3' vRNA, 1.6 uM 5' vRNA, 160 uM primer pppApG, 1.6 mM each ATP and CTP; 25 mM Tris-HCl pH 7.5, 300 mM NaCl, 2 mM MnCl2, 8 mM TCEP, 1% glycerol; asymmetric dimer of two heterotrimers (THOVPol-ELR with THOVPol-RER) beside a monomeric form
[3] = target: Thogoto virus (THOV) polymerase, full-length heterotrimer of PB2, PB1 and PA (Thogoto virus (isolate SiAr 126)) (UniProt Q9YNA4); assay: cryo-EM structure; transcriptional elongation sample: 3.2 uM THOVPol, 30 °C for 6 h with 2.5 uM 3' vRNA, 2.5 uM 5' vRNA, 160 uM capped primer m7GpppAmG, 1.6 mM each ATP and CTP; 25 mM Tris-HCl pH 7.5, 300 mM NaCl, 2 mM MnCl2, 8 mM TCEP, 1% glycerol; asymmetric dimer of two heterotrimers (THOVPol-EL with THOVPol-RE) beside monomeric forms

Q: What does the source list for “Thogoto virus (THOV) polymerase, full-length heterotrimer of PB2, PB1 and PA (from UniProt Q9YNA4 1-769; Q9YNA4 1-769; Q9YNA4 1-769) (complex)”?
A: reduction of mRNA and cRNA levels in the mini-replicon assay (RT-qPCR) with PB2-HA D547A/F549A (dimer interface 1) [1]: > 100 fold; reduction of mRNA and cRNA levels in the mini-replicon assay (RT-qPCR) with PB2-HA F134A/W138A (dimer interface 2) [1]: > 100 fold; reduction of mRNA and cRNA levels in the mini-replicon assay (RT-qPCR) with PB2-HA Q295A/D547A/I653A (dimer interfaces 1 and 3) [1]: > 100 fold; stoichiometry N [2]: 2; stoichiometry N [3]: 2
